Reference: US20200040059A1

T1: CD96 (UniProt P40200)
T1 sequence (looked up): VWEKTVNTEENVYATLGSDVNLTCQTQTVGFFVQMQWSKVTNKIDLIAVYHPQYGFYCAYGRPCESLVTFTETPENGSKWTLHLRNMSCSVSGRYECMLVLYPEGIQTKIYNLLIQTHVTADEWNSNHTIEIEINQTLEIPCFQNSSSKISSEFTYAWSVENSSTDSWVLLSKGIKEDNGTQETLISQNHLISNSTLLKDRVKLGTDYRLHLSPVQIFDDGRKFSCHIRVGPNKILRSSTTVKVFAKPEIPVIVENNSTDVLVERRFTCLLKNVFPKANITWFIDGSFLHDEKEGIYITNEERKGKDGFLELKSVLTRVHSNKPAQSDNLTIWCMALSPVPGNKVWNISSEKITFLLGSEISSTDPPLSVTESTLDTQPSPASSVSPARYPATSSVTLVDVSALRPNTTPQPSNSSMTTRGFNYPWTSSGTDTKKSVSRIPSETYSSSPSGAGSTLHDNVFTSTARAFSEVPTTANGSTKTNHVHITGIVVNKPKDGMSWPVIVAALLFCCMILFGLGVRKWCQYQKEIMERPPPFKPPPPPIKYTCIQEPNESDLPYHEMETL

T2: CD226 (human) (UniProt Q15762)
T2 sequence: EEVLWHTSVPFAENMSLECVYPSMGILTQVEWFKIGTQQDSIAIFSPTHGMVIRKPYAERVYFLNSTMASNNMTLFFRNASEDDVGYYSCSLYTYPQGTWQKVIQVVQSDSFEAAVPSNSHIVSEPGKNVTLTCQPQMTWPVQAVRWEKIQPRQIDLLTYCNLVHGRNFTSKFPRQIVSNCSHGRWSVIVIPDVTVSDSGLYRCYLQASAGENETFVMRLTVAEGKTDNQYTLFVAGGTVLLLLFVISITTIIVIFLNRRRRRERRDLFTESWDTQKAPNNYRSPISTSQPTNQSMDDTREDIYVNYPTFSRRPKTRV


Assays:
CD96 [1] = biological target: T1, CD96; experiment: flow cytometry, CD96-expressing cells
CD226 (human) [2] = biological target: T2, CD226 (human); experiment: flow cytometry, CD226-expressing cells
CD96 [3] = biological target: T1, CD96; experiment: flow cytometry, cells
CD226 (human) [4] = biological target: T2, CD226 (human); experiment: flow cytometry, transfected cells

Row | Binder | MFI at 11.1 nM (CD96 [1]) [MFI] | MFI at 11.1 nM (CD226 (human) [2]) [MFI] | MFI at 100 nM (CD96 [1]) [MFI] | MFI (CD96 [3]) | MFI (CD226 (human) [4])
1 | CD155 P18S, P64S, F91S IgV-Fc (Fc fusion, not shown: a dimerising Fc or GST; small tags and cut ends) PGTGDVVVQAPTQVSGFLGDSVTLPCYLQVPNMEVTHVSQLTWARHGESGSMAVFHQTQGSSYSESKRLEFVAARLGAELRNASLRMSGLRVEDEGNYTCLFVTFPQGSRSVDIWL |  |  |  | 140000 | 498000
2 | CD155 P18T, F91S, V115A IgV-Fc (Fc fusion, not shown: a dimerising Fc or GST; small tags and cut ends) PGTGDVVVQAPTQVTGFLGDSVTLPCYLQVPNMEVTHVSQLTWARHGESGSMAVFHQTQGPSYSESKRLEFVAARLGAELRNASLRMSGLRVEDEGNYTCLFVTFPQGSRSADIWL |  |  |  | 22700 | 38500
3 | CD155 L88P IgV-Fc (Fc fusion, not shown: a dimerising Fc or GST; small tags and cut ends) PGTGDVVVQAPTQVPGFLGDSVTLPCYLQVPNMEVTHVSQLTWARHGESGSMAVFHQTQGPSYSESKRLEFVAARLGAELRNASPRMFGLRVEDEGNYTCLFVTFPQGSRSVDIWL |  |  |  | 35300 | 65100
4 | CD155 A56V IgV-Fc (Fc fusion, not shown: a dimerising Fc or GST; small tags and cut ends) PGTGDVVVQAPTQVPGFLGDSVTLPCYLQVPNMEVTHVSQLTWARHGESGSMVVFHQTQGPSYSESKRLEFVAARLGAELRNASLRMFGLRVEDEGNYTCLFVTFPQGSRSVDIWL |  |  |  | 161000 | 455000
5 | CD155 P18T, Q60K IgV-Fc (Fc fusion, not shown: a dimerising Fc or GST; small tags and cut ends) PGTGDVVVQAPTQVTGFLGDSVTLPCYLQVPNMEVTHVSQLTWARHGESGSMAVFHKTQGPSYSESKRLEFVAARLGAELRNASLRMFGLRVEDEGNYTCLFVTFPQGSRSVDIWL |  |  |  | 154000 | 238000
6 | CD155 P18T, T45A, F91S IgV-Fc (Fc fusion, not shown: a dimerising Fc or GST; small tags and cut ends) PGTGDVVVQAPTQVTGFLGDSVTLPCYLQVPNMEVTHVSQLAWARHGESGSMAVFHQTQGPSYSESKRLEFVAARLGAELRNASLRMSGLRVEDEGNYTCLFVTFPQGSRSVDIWL |  |  |  | 191000 | 436000
7 | CD155 P18T, S42P, F91S IgV-Fc (Fc fusion, not shown: a dimerising Fc or GST; small tags and cut ends) PGTGDVVVQAPTQVTGFLGDSVTLPCYLQVPNMEVTHVPQLTWARHGESGSMAVFHQTQGPSYSESKRLEFVAARLGAELRNASLRMSGLRVEDEGNYTCLFVTFPQGSRSVDIWL |  |  |  | 135000 | 554000
8 | CD155 P18S, F91S, L104P IgV-Fc (Fc fusion, not shown: a dimerising Fc or GST; small tags and cut ends) PGTGDVVVQAPTQVSGFLGDSVTLPCYLQVPNMEVTHVSQLTWARHGESGSMAVFHQTQGPSYSESKRLEFVAARLGAELRNASLRMSGLRVEDEGNYTCPFVTFPQGSRSVDIWL |  |  |  | 10900 | 26200

The remaining lines, values ahead:

Row | MFI at 11.1 nM (CD96 [1]) [MFI] | MFI at 11.1 nM (CD226 (human) [2]) [MFI] | MFI at 100 nM (CD96 [1]) [MFI] | MFI (CD96 [3]) | MFI (CD226 (human) [4]) | Binder
9 | 959 | 986 |  |  |  | CD155 variant IgV-Fc V9L, P18S, Q60R, V75L, L79P, R89K, F91S, L104E, G111R (Fc fusion, not shown: a dimerising Fc or GST; small tags and cut ends) PGTGDLVVQAPTQVSGFLGDSVTLPCYLQVPNMEVTHVSQLTWARHGESGSMAVFHRTQGPSYSESKRLEFLAARPGAELRNASLKMSGLRVEDEGNYTCEFVTFPQRSRSVDIWL
10 |  |  | 22800 |  |  | CD155 variant IgV-Fc P18T, T45Q, T61R, S65N, S67L (Fc fusion, not shown: a dimerising Fc or GST; small tags and cut ends) PGTGDVVVQAPTQVTGFLGDSVTLPCYLQVPNMEVTHVSQLQWARHGESGSMAVFHQRQGPNYLESKRLEFVAARLGAELRNASLRMFGLRVEDEGNYTCLFVTFPQGSRSVDIWL
11 |  |  |  | 11700 | 18900 | CD155 R94H IgV-Fc (Fc fusion, not shown: a dimerising Fc or GST; small tags and cut ends) PGTGDVVVQAPTQVPGFLGDSVTLPCYLQVPNMEVTHVSQLTWARHGESGSMAVFHQTQGPSYSESKRLEFVAARLGAELRNASLRMFGLHVEDEGNYTCLFVTFPQGSRSVDIWL
12 | 923 | 974 |  |  |  | CD155 variant IgV-Fc V11A, P18S, L79P, F91S, L104M, G111R (Fc fusion, not shown: a dimerising Fc or GST; small tags and cut ends) PGTGDVVAQAPTQVSGFLGDSVTLPCYLQVPNMEVTHVSQLTWARHGESGSMAVFHQTQGPSYSESKRLEFVAARPGAELRNASLRMSGLRVEDEGNYTCMFVTFPQRSRSVDIWL
